T1: recombinant human CTLA4-Fc (human, UniProt P16410 36-162)
T1 construct: also called human CTLA4 fused with human FC fragment; CTLA4-Fc (Sino Biological, 11159-H03H)
T1 sequence (looked up): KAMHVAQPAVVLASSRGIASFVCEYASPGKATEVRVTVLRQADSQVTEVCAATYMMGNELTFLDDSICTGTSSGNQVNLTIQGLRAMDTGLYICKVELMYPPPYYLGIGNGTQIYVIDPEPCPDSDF


Legend:
[1] = molecular target: T1, recombinant human CTLA4-Fc; assay: ELISA, coated human CTLA4-Fc (as in Example 8)
Protocol: (§1) Plates were blocked with PBS supplemented with 3% non-fat milk at 37° C. for 1 hour. After washing, 100 μL of 3-fold serial dilutions of antibodies were added to each well. After incubation at 37° C. for 1 hour, plates were washed four times, and 100 μL HRP conjugated anti-human IgG (Fab specific) (1:6000 dilution) was added to each well. Plates were incubated at 37° C. for 1 hour, washed four times, and then 50 μL TMB substrate solution was added to each well, and the plate was incubated at room temperature. […] The EC₅₀ was evaluated by fitting the ELISA data using the asymmetrical sigmoidal (five-parameter logistic equation) model of GraphPad Prism 6 software.

[2] = molecular target: T1, recombinant human CTLA4-Fc; assay: ELISA, coated human CTLA4-Fc (as in Example 8); remark: listed apart in the source
Protocol: as §1

[3] = molecular target: T1, recombinant human CTLA4-Fc; assay: ELISA, coated human CTLA4-Fc
Protocol: as §1
(§2) The purified activatable antibodies were treated with the proteases which recognize the cleavage sequences, and were then tested to determine whether removal of the masking peptide restored their activity.

[4] = molecular target: T1, recombinant human CTLA4-Fc; assay: ELISA; EC50 divided by the EC50 of TY21580
Protocol: as §1

[5] = molecular target: T1, recombinant human CTLA4-Fc; assay: ELISA, coated human CTLA4-Fc; EC50 divided by the EC50 of TY21580
Protocol: as §1, §2

[6] = molecular target: T1, recombinant human CTLA4-Fc; assay: ELISA, coated human CTLA4-Fc (as in Example 8); remark: listed apart in the source
Protocol: as §1

[7] = molecular target: T1, recombinant human CTLA4-Fc; assay: ELISA; EC50 divided by the EC50 of TY21580; remark: listed apart in the source
Protocol: as §1

[8] = molecular target: T1, recombinant human CTLA4-Fc; assay: ELISA; EC50 divided by the EC50 of TY21580; remark: listed apart in the source
Protocol: as §1

[9] = molecular target: T1, recombinant human CTLA4-Fc; assay: BLI Octet, CTLA4-Fc on AHC sensor, Fab 10 ug/mL
Protocol: Proprietary phagemid libraries (see PCT application number PCT/CN2017/098333, incorporated herein by reference in its entirety; see also PCT application number PCT/CN2017/098299, incorporated herein by reference in its entirety) were employed to pan against human CTLA4 antigens. A total of 3-5 rounds of panning were conducted. After the final round of panning, single-colony supernatant ELISA was performed to identify the primary hits that specifically recognized human CTLA4 (see e.g., UniProt Accession Number P16410). The primary hits were defined as those whose ELISA signals were at least twice that of background. The hits were then sequenced, and the unique clones were expressed in E. coli and purified. Their affinities against human CTLA4 were measured by ForteBio Octet RED96 Systems. […] The acquired ForteBio data were processed with Data Acquisition software 7.1, and kinetic data were fitted to a 1:1 Langmuir binding model.

[10] = molecular target: mouse CTLA4 fused with human FC fragment (mouse, UniProt P09793 36-162, limits assumed); assay: ELISA, captured Fab, CTLA4-Fc titrated

Binder | EC50 [1] [nM] | EC50 [2] [nM] | EC50 [3] [nM] | LogEC50 [3] | masking efficiency [4] | masking efficiency [5] | EC50 [6] [nM] | masking efficiency [7] | masking efficiency [8] | Kd [9] [nM] | koff [9] [s⁻¹] | kon [9] [M⁻¹ s⁻¹] | binding result [10]
TY22404 (antibody, IgG1, V domains shown, IgG1; peptide fused to the N-terminus of the light chain of TY21580) VH: EVQLVESGGGLVQPGGSLRLSCAASGYSISSGYHWSWIRQAPGKGLEWLARIDWDDDKYYSTSLKSRLTISRDNSKNTLYLQLNSLRAEDTAVYYCARSYVYFDYWGQGTLVTVSS VL: EVGSYPNPSSDCVPYYYACAYSGRSAGGGGSPLGLAGSGGSDIQLTQSPSSLSASVGDRVTITCRASQSVRGRFLAWYQQKPGKAPKLLIYDASNRATGIPSRFSGSGSGTDFTLTISSLQPEDFATYYCQQSSSWPPTFGQGTKVEIKR | 68.4 | 122 | 96.8 | -7.01 | 308 | 216 | 117 | 469 | 572 |  |  |  | 
B15740 (Fab, V domains shown, Fab from E. coli; also called Fab hit of TY21589) VH: EVQLVESGGGLVQPGGSLRLSCAASGFTFSDYWIHWVRQAPGKGLEWIGWISPSGGGTKYAQKFQGRVTISRDNSKNTLYLQLNSLRAEDTAVYYCARGAYEFDYWGQGTLVTVSS VL: DIQLTQSPSSLSASVGDRVTITCRASQSVSSRFLAWYQQKPGKAPKLLIYDASNRATGIPSRFSGSGSGTDFTLTISSLQPEDFATYYCQQSYPTPLTFGQGTKVEIKR |  |  |  |  |  |  |  |  |  | 14.5 | 0.00258 | 178000 | no binding

Source: patent publication US20190241662A1 (ADAGENE, published 2019)
